System: Bacillus subtilis
Test: cleaved RNA product abundance (RNA/gDNA barcode ratio) relative to median wild-type variant (ratio to wild type); higher = more accumulation of the downstream cleavage product
Details: cleavage site: cggR-gapA (positions -7 to +36 mutated)
Method: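 MPRA in B. subtilis. Mutagenized RNase Y cleavage-site regions (9% mutation rate) were inserted into a barcoded reporter mRNA (truncated aprE or tetM). Cells were grown in LB at 37°C to OD600 0.3. The cleaved RNA isoform was gel-purified and its barcodes counted; the RNA:gDNA barcode ratio was normalised to the median wild-type variant, and the median over barcodes is reported per variant. The printed sequence is the variable window only; the reporter flanks are not printed.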

[1] = experiment (reporter, strain, medium): exp 2b: truncated aprE reporter, strain BJT200
[2] = experiment (reporter, strain, medium): exp 4a: truncated aprE reporter, strain BJT201 with 2% xylose (RNase J1 expressed)
[3] = experiment (reporter, strain, medium): exp 6: tetM reporter, strain 168

Sequence	cleaved RNA product abundance [1]	cleaved RNA product abundance [2]	cleaved RNA product abundance [3]
ACAGACGAAGGAGCCGCAAAGAAATTATTAATGTATGAATAATCCCTCAATATAAATATCTCTCACTTATTTAAA	0.117	0.111	
ACAGACGAAGGAGCCGCAAAGAAATTATTACGGGATGAATAATCCCTCAATATAAATATCTCTCACTTATTTAAA		0.396	
ACAGACGAAGGAGCCGCAAAGAAATTATTAGGGGATGAATAATCCCTCAATATAAATATCTCTCACTTATTTAAA		0.586	
ACAGACGAAGGAGCCGCAAAGAAATTATTAGGGGATGAATAATCCCTCCATATAAATATCTCTCACTTATTTAAA	0.188		
ACAGACGAAGGAGCCGCAAAGAAATTATTATGGGATGAATAATCCCTCAATATAAATATCTCTCACTTATTTAAA		0.277	
ACAGACGAAGGAGCCGCAAAGAAATTATTCAGGGATGAATAATCCCTCAATATAAATATCTCTCACTTATTTAAA	0.575	0.747	
ACAGACGAAGGAGCCGCAAAGAAATTATTTAGGGATGAATAATCCCTCAATATAAATATCTCTCACTTATTTAAA		0.718	
ACAGACGAAGGAGCCGCAAAGAAATTCTTAAGGGATGAATAATCCCTCAATATAAATATCTCTCACTTATTTAAA	0.186	0.199	
ACAGACGAAGGAGCCGCAAAGAAATTGTTAAGGGATGAATAATCCCTCAATATAAATATCTCTCACTTATTTAAA	0.377		
ACAGACGAAGGAGCCGCAAAGAAATTTTTAAGGGATGAATAATCCCTCAATATAAATATCTCTCACTTATTTAAA	0.206	0.264	
ACAGACGAAGGAGCCGCAAAGAACATATTAAGGGATGAATAATCCCTCAATATAAATATCTCTCACTTATTTAAA	0.607	0.499	
ACAGACGAAGGAGCCGCAAAGAACCTATTAAGGGATGAATAATCCCTCAATATAAATATCTCTCACTTATTTAAA	0.18	0.309	
ACAGACGAAGGAGCCGCAAAGAACGTATTAAGGGATGAATAATCCCTCAATATAAATATCTCTCACTTATTTAAA		0.724	
ACAGACGAAGGAGCCGCAAAGAACTAATTAAGGGATGAATAATCCCTCAATATAAATATCTCTCACTTATTTAAA		0.321	
ACAGACGAAGGAGCCGCAAAGAACTGATTAAGGGATGAATAATCCCTCAATATAAATATCTCTCACTTATTTAAA		0.238	
ACAGACGAAGGAGCCGCAAAGAACTTAATAAGGAATGAATAATCCCTCAATATAAATATCTCTCACTTATTTAAA		0.133	
ACAGACGAAGGAGCCGCAAAGAACTTAATAAGGGATGAATAATCCCTCAATATAAATATCTCTCACTTATTTAAA		0.167	
ACAGACGAAGGAGCCGCAAAGAACTTACTAAGGGATGAATAATCCCTCAATATAAATATCTCTCACTTATTTAAA		0.237	
ACAGACGAAGGAGCCGCAAAGAACTTATAAAGGGACGAATAATCCCTCAATATAAATATCTCTCACTTATTTAAA		0.162	

Sequence	cleaved RNA product abundance [1]	cleaved RNA product abundance [2]	cleaved RNA product abundance [3]
ACAGACGAAGGAGCCGCAAAGAACTTATAAAGGGATGAATAATCCCTCAATATAAATATCTCTCACTTATTTAAA	0.24	0.263	
ACAGACGAAGGAGCCGCAAAGAACTTATCAAGGGATGAATAATCCCTCAATATAAATATCTCTCACTTATTTAAA		0.32	
ACAGACGAAGGAGCCGCAAAGAACTTATGAAGGGATGAATAATCCCTCAATATAAATATCTCTCACTTATTTAAA	0.274		
ACAGACGAAGGAGCCGCAAAGAACTTATTAAAGGATGAATAATCCCTCAATATAAATATCTCTCACTTATTTAAA	0.166		
ACAGACGAAGGAGCCGCAAAGAACTTATTAACGGATGAATAATCCCTCAATATAAATATCTCTCACTTATTTAAA		0.112	
ACAGACGAAGGAGCCGCAAAGAACTTATTAAGAGATGAATAATCCCTCAATATAAATATCTCTCACTTATTTAAA	0.092	0.147	
ACAGACGAAGGAGCCGCAAAGAACTTATTAAGCGATGAATAATCCCTCAATATAAATATCTCTCACTTATTTAAA	0.0844	0.157	
ACAGACGAAGGAGCCGCAAAGAACTTATTAAGGAATGAATAATCCCTCAATATAAATATCTCTCACTTATTTAAA		0.117	
ACAGACGAAGGAGCCGCAAAGAACTTATTAAGGCATGAATAATCCCTCAATATAAATATCTCTCACTTATTTAAA	0.114	0.099	
ACAGACGAAGGAGCCGCAAAGAACTTATTAAGGGAAGAATAATCCCTCAATATAAATATCTCTCACTTATTTAAA		0.235	
ACAGACGAAGGAGCCGCAAAGAACTTATTAAGGGACGAATAATCCCTCAATATAAATATCTCTCACTTATTTAAA	0.375	0.389	
ACAGACGAAGGAGCCGCAAAGAACTTATTAAGGGAGGAATAATCCCTCAATATAAATATCTCTCACTTATTTAAA		0.315	
ACAGACGAAGGAGCCGCAAAGAACTTATTAAGGGATAAATAATCCCTCAATATAAATATCTCTCACTTATTTAAA	0.556	0.477	
ACAGACGAAGGAGCCGCAAAGAACTTATTAAGGGATCAATAATCCCTCAATATAAATATCTCTCACTTATTTAAA	0.282	0.27	
ACAGACGAAGGAGCCGCAAAGAACTTATTAAGGGATGAAAAATCCCTCAATATAAATATCTCTCACTTATTTAAA		0.521	
ACAGACGAAGGAGCCGCAAAGAACTTATTAAGGGATGAACAATCCCTCAATATAAATATCTCTCACTTATTTAAA		0.344	
ACAGACGAAGGAGCCGCAAAGAACTTATTAAGGGATGAATAAACCCTCAATATAAATATCTCTCACTTATTTAAA	0.224	0.265	
ACAGACGAAGGAGCCGCAAAGAACTTATTAAGGGATGAATAACCCCTCAATATAAATATCTCTCACTTATTTAAA	0.235		
ACAGACGAAGGAGCCGCAAAGAACTTATTAAGGGATGAATAATACCTCAATATAAATATCTCTCACTTATTTAAA	0.0995	0.165	

Sequence	cleaved RNA product abundance [1]	cleaved RNA product abundance [2]	cleaved RNA product abundance [3]
ACAGACGAAGGAGCCGCAAAGAACTTATTAAGGGATGAATAATCACTCAATATAAATATCTCTCACTTATTTAAA	0.102	0.152	
ACAGACGAAGGAGCCGCAAAGAACTTATTAAGGGATGAATAATCCATCAATATAAATATCTCTCACTTATTTAAA	0.15	0.209	
ACAGACGAAGGAGCCGCAAAGAACTTATTAAGGGATGAATAATCCCACAATATAAATATCTCTCACTTATTTAAA	0.207	0.292	
ACAGACGAAGGAGCCGCAAAGAACTTATTAAGGGATGAATAATCCCCCAATATAAATATCTCTCACTTATTTAAA		0.25	
ACAGACGAAGGAGCCGCAAAGAACTTATTAAGGGATGAATAATCCCTAAATATAAATATCTCTCACTTATTTAAA	0.258	0.454	
ACAGACGAAGGAGCCGCAAAGAACTTATTAAGGGATGAATAATCCCTCAAAATAAATATCTCTCACTTATTTAAA		0.208	
ACAGACGAAGGAGCCGCAAAGAACTTATTAAGGGATGAATAATCCCTCAACATAAATATCTCTCACTTATTTAAA		0.227	
ACAGACGAAGGAGCCGCAAAGAACTTATTAAGGGATGAATAATCCCTCAAGATAAATATCTCTCACTTATTTAAA	0.165	0.185	
ACAGACGAAGGAGCCGCAAAGAACTTATTAAGGGATGAATAATCCCTCAATATAAACATCTCTCACTTATTTAAA		0.348	
ACAGACGAAGGAGCCGCAAAGAACTTATTAAGGGATGAATAATCCCTCAATATAAATAACTCTCACTTATTTAAA	0.444	0.566	
ACAGACGAAGGAGCCGCAAAGAACTTATTAAGGGATGAATAATCCCTCAATATAAATATCTCTCACTTATTTAAA	0.448	0.509	0.575
ACAGACGAAGGAGCCGCAAAGAACTTATTAAGGGATGAATAATCCCTCAATATAAATATTTCTCACTTATTTAAA		0.307	
ACAGACGAAGGAGCCGCAAAGAACTTATTAAGGGATGAATAATCCCTCAATATATATATCTCTCACTTATTTAAA		0.454	
ACAGACGAAGGAGCCGCAAAGAACTTATTAAGGGATGAATAATCCCTCAGTATAAATATCTCTCACTTATTTAAA	0.128	0.309	
ACAGACGAAGGAGCCGCAAAGAACTTATTAAGGGATGAATAATCCCTCCATATAAATATCTCTCACTTATTTAAA		0.28	
ACAGACGAAGGAGCCGCAAAGAACTTATTAAGGGATGAATAATCCCTCGATATAAATATCTCTCACTTATTTAAA		0.269	
ACAGACGAAGGAGCCGCAAAGAACTTATTAAGGGATGAATAATCCCTCTATATAAATATCTCTCACTTATTTAAA		0.332	
ACAGACGAAGGAGCCGCAAAGAACTTATTAAGGGATGAATAATCCCTGAATATAAATATCTCTCACTTATTTAAA	0.264	0.213	
ACAGACGAAGGAGCCGCAAAGAACTTATTAAGGGATGAATAATCCCTTAATATAAATATCTCTCACTTATTTAAA		0.369	0.271

From the supplement of paper PMC11780869
